Measurements taken from patent US20250376498A1, “FUSION PROTEINS COMPRISING AN IMPROVED GLP-1 RECEPTOR AGONIST AND USES THEREOF” (Guangzhou Innogen Pharmaceutical Group Co., Ltd., priority 2022, published 2025).
Entries after “also recorded” stand apart in the source; their conditions may differ.

Experiments:
SH-SY5Y neuronal cells = experiment: TNF-α-induced decrease in SH-SY5Y cell viability (CCK-8); format: cell-based; details: 60 ng/ml TNF-α, 48 hours; YN-011 10, 100, 500 nM; GABA 100 μM
Procedure: SH-SY5Y neuronal cells were digested using 0.25% trypsin to prepare a single-cell suspension. The single-cell suspension was seeded in a 96-well plate at a density of 10,000 cells per well in 100 μl of medium. The plate was placed in a CO2 incubator overnight (37° C., 5% CO2) to allow cell adhesion. The medium was replaced with medium containing 10% FBS or 5% FBS, and cells were stimulated with 20, 40, 60, 80, or 100 ng/ml TNF-α for 48 hours. Each drug treatment was performed in six replicate wells. After 48 hours of drug treatment, 10 μl of CCK-8 solution was added to each well, and the plate was gently shaken to mix the reagents. The plate was then incubated in a CO2 incubator for 1-4 hours. The absorbance at 450 nm was measured using a microplate reader, and cell viability was calculated using the following formula:
[formula] • A (treated): OD value of wells containing cells, CCK-8 solution, and drug solution • A (control): OD value of wells containing cells and CCK-8 solution without drug solution • A (blank): OD value of wells without cells
Please refer to section 8.1 for the experimental procedure, but the drug treatment in this experiment is different from section 8.1. […]

INS-1 cells = experiment: Assessment of YN-011 activity by inducing cAMP levels in INS-1 cells; format: cell-based; details: YN-011 120 nM
Procedure: Natural GLP-1 stimulates insulin secretion from beta cells in a glucose-dependent manner. […] INS-1 cells were serum-starved and glucose-starved, then treated with different amounts of purified YN-011 in the presence of 0, 5, or 20 mM glucose as indicated.
Furthermore, the blank control (SF1) and the two samples with the […] hydroxylation levels (SF4 and SF5) were tested for the biological activity of YN-011 using the method described in Example 1. […] Thus, higher hydroxylation levels tend to increase the biological activity.

patients with T2DM = experiment: Phase IIb and III clinical trials of YN-011 in combination with metformin in T2DM; format: in vivo; details: 3 mg YN-011 in combination with metformin, 24 weeks
Procedure: The Phase IIb and III clinical trials were multicenter, randomized, double-blind, placebo-controlled studies evaluating the efficacy and safety of YN-011 in patients with T2DM who had inadequate glycemic control on metformin therapy. The Phase IIb trial aimed to explore dose response and evaluate safety (divided into three groups: YN-011 1 mg+metformin, YN-011 3 mg+metformin, and placebo+metformin), to determine the Recommended Phase 3 Dose (RP3D) for the Phase III trial, which aimed at efficacy confirmation . . .
The inclusion criteria for subjects in the Phase IIb and III studies of YN-011 in combination with metformin were primarily the same as those in Implementation Example 10, except for the following point: • Diagnosed with type 2 diabetes for at least 8 weeks (WHO 2000), and met one of the following conditions: • a) Received monotherapy with metformin for >8 weeks with a dose of ≥1500 mg/day or maximum tolerated dose (<1500 mg/day but ≥1000 mg/day) (eligible subjects could directly enter the run-in period). • b) Received monotherapy with metformin for <8 weeks with a dose of ≥1500 mg/day or maximum tolerated dose (<1500 mg/day but ≥1000 mg/day) (eligible subjects needed to enter the metformin dose stabilization period). • c) Received monotherapy with metformin at a dose <1500 mg/day and had not reached the maximum tolerated dose (eligible subjects needed to enter the metformin dose titration period and dose stabilization period).
Please refer to the exclusion criteria in Implementation Example 10 for the primary exclusion criteria for subjects in the Phase IIb and III studies of YN-011 in combination with metformin.
Primary efficacy endpoints included the comparison of YN-011 in combination with metformin versus placebo in combination with metformin in terms of the change in HbA1c levels from baseline after 12 weeks (Phase IIb) or 24 weeks (Phase III) of double-blind administration in patients with T2DM who had inadequate glycemic control on metformin therapy. Please refer to Implementation Example 10 for the secondary efficacy endpoints and safety assessments.

[1] = human, in vivo

| Molecule | SH-SY5Y cell viability (SH-SY5Y neuronal cells) | cAMP levels (INS-1 cells; 5 mM glucose, comparable to exendin-4) | cAMP levels (INS-1 cells; absence of glucose) | incidence of hypoglycemia (<3.9 mmol/L) (patients with T2DM) [%] | incidence of nausea (patients with T2DM) [%] | reduction in FPG levels (patients with T2DM) [%] | reduction in HbA1c levels (patients with T2DM) [%] | half-life compared with SUPA-1, Dulaglutide and Semaglutide [1] | plasma concentration steady state [1] | median Tmax ([1]; sc) [h] |
| --- | --- | --- | --- | --- | --- | --- | --- | --- | --- | --- |
| NCCCC(=O)O [GABA, γ-aminobutyric acid] | significantly enhanced cell viability; also recorded: inhibiting TNF-α-induced reduction in SH-SY5Y cell viability |  |  |  |  |  |  |  |  |  |
| YN-011: GLP-1 fusion protein of SEQ ID NO: 7: GLP-1 (A8G, G22E, R36G), linker peptide and IgG2/Fc domain (C222S, A330S, P331S) (protein) HGEGTFTSDVSSYLEEQAAKEFIAWLVKGGGSSGAPPPSGGGGSERKSCVECPPCPAPPVAGPSVFLFPPKPKDTLMISRTPEVTCVVVDVSHEDPEVQFNWYVDGVEVHNAKTKPREEQFNSTFRVVSVLTVVHQDWLNGKEYKCKVSNKGLPSSIEKTISKTKGQPREPQVYTLPPSREEMTKNQVSLTCLVKGFYPSDIAVEWESNGQPENNYKTTPPMLDSDGSFFLYSKLTVDKSRWQQGNVFSCSVMHEALHNHYTQKSLSLSPG | significantly enhanced cell viability; also recorded: inhibiting TNF-α-induced reduction in SH-SY5Y cell viability | significantly increased | maintained basal levels of cAMP | 1.8 | 7.0 | 2.42 | 1.8 | significantly longer half-life than Dulaglutide and Semaglutide | reached a steady state after the fourth dose | 60 to 84 |
